Positions count from the first letter of the chain named.
B1: CDRH2 library mutant AAIAWNGGHH (Fab, V domains shown)
VH: EVQLVESGGGLVQPGRSLRLSCAASGFTFDDYAMHWVRQAPGKGLEWVAAIAWNGGHHDYADSVEGRFTISRDNAKNSLYLQMNSLRAEDTAVYYCAKVSYLSTASSLDYWGQGTLVTVSS
VL: not shown
B2: CDRH2 library mutant AAISWNGGHQ (Fab, V domains shown)
VH: B1 VH with A52S, H58Q
VL: not shown
B3: CDRH3 library mutant VYYCAKTKYLPS (Fab, V domains shown)
VH: B1 VH with A49S, A52T, G55S, H58I, V99T, S100K, S103P, T104S
VL: not shown
B4: CDRH2 library mutant AAINWNGGHR (Fab, V domains shown)
VH: B1 VH with A52N, H58R
VL: not shown
B5: CDRH3 library mutant VYYCAKTGYLPT (Fab, V domains shown)
VH: B1 VH with A49S, A52T, G55S, H58I, V99T, S100G, S103P
VL: not shown
B6: CDRH2 library mutant GAITWNGGHR (Fab, V domains shown)
VH: B1 VH with A49G, A52T, H58R
VL: not shown
B7: CDRH2 library mutant AAISWNGGHH (Fab, V domains shown)
VH: B1 VH with A52S
VL: not shown
B8: CDRH3 library mutant VYYCAKTNYLPT (Fab, V domains shown)
VH: B1 VH with A49S, A52T, G55S, H58I, V99T, S100N, S103P
VL: not shown
B9: CDRH3 library mutant VYYCAKTRYTPT (Fab, V domains shown)
VH: B1 VH with A49S, A52T, G55S, H58I, V99T, S100R, L102T, S103P
VL: not shown
B10: CDRH3 library mutant VYYCAKAHHLPT (Fab, V domains shown)
VH: B1 VH with A49S, A52T, G55S, H58I, V99A, S100H, Y101H, S103P
VL: not shown
B11: CDRH3 library mutant VYYCAKSKYLPT (Fab, V domains shown)
VH: B1 VH with A49S, A52T, G55S, H58I, V99S, S100K, S103P
VL: not shown
B12: CDRH2 library mutant AAISWNGGHT (Fab, V domains shown)
VH: B1 VH with A52S, H58T
VL: not shown
B13: CDRH3 library mutant LYYCAKTRYLPT (Fab, V domains shown)
VH: B1 VH with A49S, A52T, G55S, H58I, V93L, V99T, S100R, S103P
VL: not shown
B14: CDRH2 library mutant AAIAWNGGHQ (Fab, V domains shown)
VH: B1 VH with H58Q
VL: not shown
B15: CDRH3 library mutant VYYCAKVTYTPS (Fab, V domains shown)
VH: B1 VH with A49S, A52T, G55S, H58I, S100T, L102T, S103P, T104S
VL: not shown
B16: CDRH2 library mutant AAISWNGGHS (Fab, V domains shown)
VH: B1 VH with A52S, H58S
VL: not shown
B17: CDRH3 library mutant VYYCAKVKYLPP (Fab, V domains shown)
VH: B1 VH with A49S, A52T, G55S, H58I, S100K, S103P, T104P
VL: not shown
B18: CDRH3 library mutant LYYCAKVKYTPT (Fab, V domains shown)
VH: B1 VH with A49S, A52T, G55S, H58I, V93L, S100K, L102T, S103P
VL: not shown
B19: CDRH2 library mutant GAINWNGGHR (Fab, V domains shown)
VH: B1 VH with A49G, A52N, H58R
VL: not shown
B20: CDRH2 library mutant GAINWNGGHT (Fab, V domains shown)
VH: B1 VH with A49G, A52N, H58T
VL: not shown
B21: CDRH3 library mutant VYYCAKTSYLPS (Fab, V domains shown)
VH: B1 VH with A49S, A52T, G55S, H58I, V99T, S103P, T104S
VL: not shown
B22: CDRH3 library mutant LYYCAKTRYLPS (Fab, V domains shown)
VH: B1 VH with A49S, A52T, G55S, H58I, V93L, V99T, S100R, S103P, T104S
VL: not shown
B23: CDRH3 library mutant VYYCAKVKYLPA (Fab, V domains shown)
VH: B1 VH with A49S, A52T, G55S, H58I, S100K, S103P, T104A
VL: not shown
B24: CDRH3 library mutant LYYCAKVKYLPS (Fab, V domains shown)
VH: B1 VH with A49S, A52T, G55S, H58I, V93L, S100K, S103P, T104S
VL: not shown
B25: CDRH3 library mutant LYYCAKTKYLPT (Fab, V domains shown)
VH: B1 VH with A49S, A52T, G55S, H58I, V93L, V99T, S100K, S103P
VL: not shown
B26: CDRH3 library mutant VYYCAKVKYLPS (Fab, V domains shown)
VH: B1 VH with A49S, A52T, G55S, H58I, S100K, S103P, T104S
VL: not shown
B27: CDRH2 library mutant AAIAWNGGHR (Fab, V domains shown)
VH: B1 VH with H58R
VL: not shown
B28: CDRH2 library mutant AAISWNGGHA (Fab, V domains shown)
VH: B1 VH with A52S, H58A
VL: not shown
B29: CDRH3 library mutant VYYCAKTRYLPT (Fab, V domains shown)
VH: B1 VH with A49S, A52T, G55S, H58I, V99T, S100R, S103P
VL: not shown
B30: CDRH2 library mutant GAISWNGGHR (Fab, V domains shown)
VH: B1 VH with A49G, A52S, H58R
VL: not shown
B31: CDRH3 library mutant LYYCAKTKYLPS (Fab, V domains shown)
VH: B1 VH with A49S, A52T, G55S, H58I, V93L, V99T, S100K, S103P, T104S
VL: not shown
B32: CDRH2 library mutant AAINWNSGHQ (Fab, V domains shown)
VH: B1 VH with A52N, G55S, H58Q
VL: not shown
B33: CDRH3 library mutant LYYCAKTTYLPT (Fab, V domains shown)
VH: B1 VH with A49S, A52T, G55S, H58I, V93L, V99T, S100T, S103P
VL: not shown
B34: CDRH3 library mutant VYYCAKTKYLPT (Fab, V domains shown)
VH: B1 VH with A49S, A52T, G55S, H58I, V99T, S100K, S103P
VL: not shown
B35: CDRH3 library mutant VYYCAKTHYLPT (Fab, V domains shown)
VH: B1 VH with A49S, A52T, G55S, H58I, V99T, S100H, S103P
VL: not shown
B36: CDRH2 library mutant GAISWNGGHT (Fab, V domains shown)
VH: B1 VH with A49G, A52S, H58T
VL: not shown
B37: CDRH2 library mutant AAINWNGGHH (Fab, V domains shown)
VH: B1 VH with A52N
VL: not shown
B38: CDRH2 library mutant AAIAWNGGHS (Fab, V domains shown)
VH: B1 VH with H58S
VL: not shown
B39: CDRH3 library mutant VYYCAKVAYLPS (Fab, V domains shown)
VH: B1 VH with A49S, A52T, G55S, H58I, S100A, S103P, T104S
VL: not shown
B40: CDRH2 library mutant AAISWNGGHR (Fab, V domains shown)
VH: B1 VH with A52S, H58R
VL: not shown
B41: CDRH3 library mutant VYYCAKTTYLPT (Fab, V domains shown)
VH: B1 VH with A49S, A52T, G55S, H58I, V99T, S100T, S103P
VL: not shown
B42: CDRH2 library mutant AAIAWNGGHT (Fab, V domains shown)
VH: B1 VH with H58T
VL: not shown
B43: CDRH2 library mutant AAINWNSGHR (Fab, V domains shown)
VH: B1 VH with A52N, G55S, H58R
VL: not shown
B44: CDRH3 library mutant LYYCAKVKYLPT (Fab, V domains shown)
VH: B1 VH with A49S, A52T, G55S, H58I, V93L, S100K, S103P
VL: not shown
B45: CDRH3 library mutant LYYCAKTTYLPS (Fab, V domains shown)
VH: B1 VH with A49S, A52T, G55S, H58I, V93L, V99T, S100T, S103P, T104S
VL: not shown
B46: CDRH2 library mutant GAISWNGGHH (Fab, V domains shown)
VH: B1 VH with A49G, A52S
VL: not shown
B47: CDRH3 library mutant VYYCAKVTYLPS (Fab, V domains shown)
VH: B1 VH with A49S, A52T, G55S, H58I, S100T, S103P, T104S
VL: not shown
B48: CDRH3 library mutant VYYCAKAKYLPT (Fab, V domains shown)
VH: B1 VH with A49S, A52T, G55S, H58I, V99A, S100K, S103P
VL: not shown
B49: CDRH3 library mutant LYYCAKTNYLPT (Fab, V domains shown)
VH: B1 VH with A49S, A52T, G55S, H58I, V93L, V99T, S100N, S103P
VL: not shown
B50: CDRH2 library mutant AAITWNGGHT (Fab, V domains shown)
VH: B1 VH with A52T, H58T
VL: not shown
B51: CDRH2 library mutant AAITWNGGHR (Fab, V domains shown)
VH: B1 VH with A52T, H58R
VL: not shown
B52: CDRH3 library mutant VYYCAKTTYLPS (Fab, V domains shown)
VH: B1 VH with A49S, A52T, G55S, H58I, V99T, S100T, S103P, T104S
VL: not shown

How the values were obtained:
biotinylated TNF alpha [1] = biological target: T1, biotinylated TNF alpha (human (definition in paragraph 32)); the …, UniProt P01375 77-233, biotinylated (site not stated)); experiment: yeast display FACS sorting on biotinylated TNF alpha, NGS enrichment, CDRH2 library
T1 construct: Used for FACS sorting of yeast libraries and immobilised on streptavidin sensors for BLI; also called TNFα; Tumor Necrosis Factor Alpha

biotinylated TNF alpha [2] = biological target: T1, biotinylated TNF alpha; experiment: yeast display MACS and FACS sorting on biotinylated TNF alpha, NGS enrichment, CDRH3 library
Source text: The second selection phase consists of selecting the mutant by the dissociation speed thereof.
The selection of DMS libraries was done in a single step by FACS on an ARIA III device (Becton Dickinson, Franklin Lakes, United States). […] After washing the cells with PBS 0.1% BSA, they were marked by using an APC coupled antibody directed against the OK domain (Thermo Fisher Scientific, Waltham, United States; dilution 1:100) and a PE coupled streptavidin (Thermo Fisher Scientific, Waltham, United States; dilution 1:100). The selection of libraries was done by means of rectangular sorting window containing 5% of the clones of interest according to the optimal parameters described by Kowalski et al. PLoS One 10, 1-23 (2015)). The selection of de-immunization libraries was done in several steps. […] The libraries underwent different steps of sorting by FACS.

T1 sequence (P01375 77-233 limits assumed): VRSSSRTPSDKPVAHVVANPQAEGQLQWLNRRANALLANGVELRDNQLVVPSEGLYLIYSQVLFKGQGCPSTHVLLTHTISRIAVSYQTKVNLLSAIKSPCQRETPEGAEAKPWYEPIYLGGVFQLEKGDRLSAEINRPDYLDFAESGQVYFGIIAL

Row | Binder | Enrichment (biotinylated TNF alpha [1]) | Enrichment (biotinylated TNF alpha [2])
1 | B1 | 119 | –
2 | B2 | 192 | –
3 | B3 | – | 87100
4 | B4 | 417 | –
5 | B5 | – | 100000
6 | B6 | 64 | –
7 | B7 | 164 | –
8 | B8 | – | 51900
9 | B9 | – | 80800
10 | B10 | – | 122000
11 | B11 | – | 105000
12 | B12 | 193 | –
13 | B13 | – | 59400
14 | B14 | 109 | –
15 | B15 | – | 99200
16 | B16 | 82 | –
17 | B17 | – | 61600
18 | B18 | – | 110000
19 | B19 | 222 | –
20 | B20 | 62 | –
21 | B21 | – | 371000
22 | B22 | – | 63500
23 | B23 | – | 81400
24 | B24 | – | 188000
25 | B25 | – | 97400
26 | B26 | – | 71900

Row | Binder | Enrichment (biotinylated TNF alpha [1]) | Enrichment (biotinylated TNF alpha [2])
27 | B27 | 197 | –
28 | B28 | 75 | –
29 | B29 | – | 707000
30 | B30 | 279 | –
31 | B31 | – | 65400
32 | B32 | 105 | –
33 | B33 | – | 54100
34 | B34 | – | 1.06e+06
35 | B35 | – | 61200
36 | B36 | 133 | –
37 | B37 | 132 | –
38 | B38 | 93 | –
39 | B39 | – | 62000
40 | B40 | 382 | –
41 | B41 | – | 1.29e+06
42 | B42 | 144 | –
43 | B43 | 122 | –
44 | B44 | – | 251000
45 | B45 | – | 151000
46 | B46 | 66 | –
47 | B47 | – | 241000
48 | B48 | – | 163000
49 | B49 | – | 448000
50 | B50 | 91 | –
51 | B51 | 213 | –
52 | B52 | – | 149000

Source: patent US20230142800A1 (COMMISSARIAT A L ENERGIE ATOMIQUE ET AUX ENERGIES …, published 2023)
